Measured values published in patent US20190185531A1.

How the values were obtained:
Assay in all cases: competition fluorescence anisotropy against fluoresceinated Bim BH3
[1] = molecular target: Bcl-2 (c-myc-tagged) (human) (UniProt P10415)
[2] = molecular target: T1, Bcl-w (c-myc-tagged) (human) (UniProt Q92843)
T1 sequence (looked up): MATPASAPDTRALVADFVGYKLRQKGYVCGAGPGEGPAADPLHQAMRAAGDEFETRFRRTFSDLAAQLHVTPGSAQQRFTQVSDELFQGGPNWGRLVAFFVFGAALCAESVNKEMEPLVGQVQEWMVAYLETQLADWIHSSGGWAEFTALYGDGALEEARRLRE

[3] = molecular target: Bcl-xL (c-myc-tagged) (human) (UniProt Q07817)
[4] = molecular target: human Mcl-1 (c-myc-tagged) (human) (UniProt Q07820)

Measured: fold specificity for Bfl-1 relative to this protein

Sequence of Bcl-2 (c-myc-tagged) (human) (P10415 1-217 limits assumed): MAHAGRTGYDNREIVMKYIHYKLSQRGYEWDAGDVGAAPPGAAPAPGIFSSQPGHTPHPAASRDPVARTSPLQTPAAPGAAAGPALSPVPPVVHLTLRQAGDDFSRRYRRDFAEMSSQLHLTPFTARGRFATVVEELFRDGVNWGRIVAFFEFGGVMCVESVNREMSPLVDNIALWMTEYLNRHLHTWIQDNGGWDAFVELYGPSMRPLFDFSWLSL
Sequence of Bcl-xL (c-myc-tagged) (human) (Q07817 1-209): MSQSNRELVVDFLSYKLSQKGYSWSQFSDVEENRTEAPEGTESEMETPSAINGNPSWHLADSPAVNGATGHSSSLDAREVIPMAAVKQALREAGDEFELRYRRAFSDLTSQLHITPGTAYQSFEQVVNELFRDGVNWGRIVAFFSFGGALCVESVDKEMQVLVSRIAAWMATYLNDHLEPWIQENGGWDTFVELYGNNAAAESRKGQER
Sequence of human Mcl-1 (c-myc-tagged) (human) (Q07820 172-327 limits assumed): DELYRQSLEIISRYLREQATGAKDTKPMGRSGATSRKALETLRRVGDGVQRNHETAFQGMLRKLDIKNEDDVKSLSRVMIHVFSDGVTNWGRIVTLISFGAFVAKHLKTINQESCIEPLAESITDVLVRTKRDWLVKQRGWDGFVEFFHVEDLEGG

Ac-QWVREIAAGLRLAADNVNAQLER-NH2 [FS1]
> 150 fold: all assays above
